Laboratory results: EP3515493A1 (dated 2019)

B1: Lym-1 (antibody, V domains shown)
VH: QLKESGPGLVAPSQSLSITCTISGFSLTSYGVHWVRQPPGKGLEWLVVIWSDGSTTYNSALKSRLSISKDNSKSQVFLKMNSLQTDDTAIYYCASHYGSTLAFASWGHGTLVTVSA
VL: DIQMTQSPASLSASVGETVTIICRASVNIYSYLAWYQQKQGKSPQLLVYNAKILAEGVPSRFSGSGSGTQFSLKINSLQPEDFGSYYCQHHYGTFTFGSGTKLEIK
B2: Lym-2 (antibody, V domains shown)
VH: EVQLEESGGGLVQPGGSMKLSCVASGFTFSNYWMNWVRQSPEKGLEWVAEIRFKSHNYATHFAESVKGRFTISRDDSKSSVYLQMNNLRAEDTGIYYCTRRIGNSDYDWWYFDVWGAGTSVTVSS
VL: DIVMTQSHKFMSTSVGDRVSVTCKASQNVGNNVAWYQQKPGQSPKVLIYSASYRYSGVPDRFTGSGSGTDFTLTISNVQSEDLAEYFCQQYNTYPFTFGSGTKLEIK

Legend:
HLA-DR, human [1] = target: HLA-DR, human (human); assay: Scatchard plot analysis, avidity constant on tonsil lymphocytes
HLA-DR, human [2] = target: HLA-DR, human (human); assay: Scatchard plot analysis, avidity constant on tumor cell line (Raji cells)
HLA-DR, human [3] = target: HLA-DR, human (human); assay: Scatchard analysis, normal B cells (Table 11: tonsil lymphocytes) compared with Raji tumor cells
HLA-DR, human [4] = target: HLA-DR, human (human); assay: Scatchard analysis, normal B cells (Table 11: tonsil lymphocytes) compared with ARH-77 tumor cells
HLA-DR, human [5] = target: HLA-DR, human (human); assay: Scatchard plot analysis, avidity constant on tumor cell line (ARH-77 myeloma cells)

| Binder | Ka (HLA-DR, human [1]) | Ka (HLA-DR, human [2]) | fold decrease in binding affinity (normal B cells against tumor cells) (HLA-DR, human [3]) | fold decrease in binding affinity (normal B cells against tumor cells) (HLA-DR, human [4]) | Ka (HLA-DR, human [5]) |
| --- | --- | --- | --- | --- | --- |
| B1 | 8.8e+07 M⁻¹ | 4.02e+08 M⁻¹ | 4 fold |  |  |
| B2 | 1.23e+08 M⁻¹ |  |  | 2 fold | 2.33e+08 M⁻¹ |
